Results reported in a protein production outcome set (Wang et al. 2014).

Assay: label from the status in PepcDB records

| Sequence | protein production |
| --- | --- |
| MGQIPPQPVRRVLPLMVVPGNGQKWRNRTETEEAMGDTYRDPVDHLRTTRPLAGESLIDVVHWPGYLLIVAGVVGGVGALAAFGTGHHAEGMTFGVVAIVVTVVGLAWLAFEHRRIRKIADRWYTEHPEVRRQRLAG | failed |
| MGQIQQPIQGYDSTSPCGDNRDPQPFDFNFIFAFQPIVNIKNGHIYAQEALVRGLKGEGAHSILSRIDENNRYSFDQKARDKALQSALSCNWDGAISINFMPNAVYYPEYCLSQTLSTCEKLGINPARLIFEWSEKEYLTEYDHIRHVISRYKHLNFKVAFDDFGGLYSNFNLLTAYHPDIIKLDRHYVVGIEHDKRRRAVVKAMVGLCRDLGIDFVVEGVETIEEFKVLQDLGVDLMQGFLLARPALMQMPQATMPP | failed |
| MGQMISEMRHGVRRPVWHDLAERFDEPRECLASFLALEAAEVLAGEKPANLIGIANRTRACGRNLYVLWKQWGAMVLGESGLAVRELSDRGDSLLLLLYRPEALEALLRRPSASAVLARAGYGAATGLDEVLTELSTRIDGDRFPHEIGVFLGYPLKDVAAFMGLVRIPFACQGPWKIFGDPRESLRLAEVFRCCRARMAERLNRCTSALDCLADGSPRPVVGFDEIESHSYGGKAMCIAVIGGMDRLEKHYREEAVRSGVELRMFSQSENNIAVKLKRFDALVIFTNKVSHRVKNEAMAVAKQNGIPVFMHHSCGVCTLRDCLSCLTATVAHVGESDRPDLGRRKNHS | failed |
| MGQVEVIDRRQSVFGDDIQLQKRSSSYEIISNGVFLMSTENGRSEREMVTLGAQHMKNAVHSVLIGGLGVGITADEAVHLNDHVQVHVVEIEPSVVEWQYRYLYPFSNQALEHERTAIIISDIQQWLRTNERTYDLICLDTDNGPDWMVHKQNASLYGKIGLELVRERVRVGGAVSFWSASASESFLHELETLFDRVYEHAVSLEHHHHHH | failed |
| MGRGRKHTDAAAEQRELAIKANIVDEPFSVSAIDRSIRKAEWVKTETDQILSGRCPETDGTWLGISTRGRVAFLVEAGTINRDRFNGAESRTLEFLESNESPEDFAKSSAADYIRNKNTAAFHLIVADIASNSMLYISKPRFSDYGIVYTEPVGPGVHTLSSAGLDSDVGYRDLRMRHSFCEMINRERLPPIRDIAEIMYDPVKAYESVLLSSIFFVDMKIGYEHYGTRITTALVVKRTKEVLFFERYREIFNDDWDDHDFAFTII | failed |
| MGRKMGISGKLYSFLYLRGFKVWVSYRTQTVLTVLGWVLPVFTYYFTGTALGNRLVNEVGVSNYTAFFTIGLAFQGYVSSVISTISQRLRNEQLYGTIEYYVISRTGTFGFLLYSALWGLTLNTINAIIILAVGFALNIHYNVNIVSAIVIIVLLILSTLGIGMIAGAVTMVTKQGNPISFFFNTFTNLLGGTVFPVTVLPLYVRYISYGIPLTWALEGLREAFLNGAPITDIAPFIIILTIFDIVLLPLGVFSYNHAFKKAREKGTLGEY | failed |
| MGRKPIKAGAIPRFRVRPQKSGVVYYYYDHGGKPRKETPLGRDYGLAIKRWAELEHAQITPAIAVTFRHVAERYRAEVIPTKAYNTQRMHHVYLNYLLQFFDDPPAPFESIKPVNIRQYLDWRPFKVSANREVALFSHLWNWARSKGITDLPNPCGGIRRNKERGRDVYIDDTTYRAVYQAADQTLRDAMDLAYLTGQRVSDVVSMDERHIVNGALEICQAKTGVKLAIAITGELAVLIKRIFDRKRGMKLRSTRLIVDEKGLGLNWKKLAYRFRKVRAAAGIAKEVFQFRDLRAKAATDKADLAGDIRQAQAQLGHTSVVMTEHYVRKRKGAKVTPTR | failed |
| MGRLVSLLPSATDLIFELGLGEQLLGVSHCCDHPGAASLPVLTRSIIGSDLPQAEIDRAVSEAVRAGRALYTVDGPLLDRLRPDLVVTQGVCEVCAVTPGTVAEAVRFLPGCLPAEQVLSLEGKTFAGILADLRALARAAGLEHHHHHH | failed |
| MGRPRVARLDRERIAEAALELVDRDGDFRMPDLARHLNVQVSSIYHHAKGRAAVVELVRHRVVREIDGSAFERLPWDEAFSEWARSYRAAFSRHPTAIRLLATETVRDPGSLSVYHSAAAGLRGAGFPDDHIMAVITAAENFLLGAALDAAAPEVMIEADSTTTDDALTRALAAAPRGPERAEQAFELGLAALLAGFHHLLQECGAVQR | not failed |
| MGRPRYLAYTRQIAMKSWRKAVVGTQATVGDAIAAIESGSIQIALVLDDQNRLLGVVTDGDVRRGLLRGIPLTGLATDIMNRVPVSAPATLSRDDRLHLMRQKSIKQLPLVDEGGHLVVVETLDELLEPRHYANPVLIMAGGLGERLGALTRDVPKPMLNVGGRPLLETIVRNVVQQGFRNIYISVNYKAETIKDYFADGAAFGANIQYVHETERLGTAGALGLFPAPPDLPMIVTNGDILTTINYGALLDFHNGTPAEATMAVREHKVHVPYGVVSTSDGFLQAIREKPTESWFVSAGIYVIGSSVFGHVAPGVSIDMPTVLERVIAGKGRVAVYPIREYWLDIGRLEDFEQAHAEFHEVFPLEHHHHHH | not failed |
| MGRRPSSSHKVSSGKISARPSLHCERGGFMRKTFLAPLTVALCALAAAQTPPPAPIDRPLPAPEPPATATVTRNEPTPQQFTPDKLARLKVPAGFKVSVMATELGNARMLHVMPDGGIYLSRRQNGDIWYLKDVNGDGTIDATERRRVADQLKLVHGIDTRQGKLYAVGEKTIWVMDIARDGTLSVPRVFADNFPDAGQHPARQLGWGPDGYLYASFGATNNDAPTQNPEEATILRIRPDGQVREVYARGLRHTIGFGWHPVTKTFYGMDQGSDWHGDNIPPEELNVIKRGKNYGWPFCYGAKNPDPFVNVANIPGKITKAEYCATTEPSTLNYTAHAAAIALKFYTGTQFPAEFRNDAFVTFRGSWNRNEPSGYEVARVVFDAQNKPEKIEPFVTGFVYQEGGEWKQFGRVAGLAVYTDGSLLFTDDQSGVIYRVQYVGGQK | failed |
| MGRTSKDKRDVYYRLAKENGWRARSAFKLLQLDKEFQLFQGVTRAVDLCAAPGSWSQVLSQKIGGQGSGHVVAVDLQAMAPLPGVVQIQGDITQLSTAKEIIQHFKGCPADLVVCDGAPDVTGLHDVDEYMQAQLLLAALNIATHVLKPGGCFVAKIFRGRDVTLLYSQLQVFFSSVLCAKPRSSRNSSIEAFAVCQGYDPPEGFIPDLSKPLLDHSYDPDFNQLDGPTRIIVPFVTCGDLSSYDSDRSYPLDLEGGSEYKYTPPTQPPISPPYQEACTLKRKGQLAKEIRPQDCPISRVDTFPQPLAAPQCHTLLAPEMEDNEMSCSP | failed |
| MGRVIVLGEVLLVGLRFVFVLLIYIFVWHVLRLMYLELGLAPAQSSRKRPVLVVLDAKNGGAKRGESYPLGENISIGRDNHNDIIINDSHVSARHAVITRQGREWKILDLDSTNGTYVNGLRLTGPHSLRPGDKISIGGVTFKVGWEDASRSPFPYRTGAAR | failed |
| MGSFDDVIGNHQADTAMIVQISADRKEINLVSIPRDSLVDVPQCETSKGTIPAQYNVMFNSIFAGAYKTGGDLSSAASCTLNAVNSLTGLNIQNFIVVDFAGLVKMIDSVGGVDLCIPQNVNDPYTGLNLDKGMHHLDGVAATQYARIRHGIGDGSDTSRTTRQQYLIKQLMSEALSKNLFTDTAQLYQLAKSALKSLNISQGMADTAALAGLAMSLKNFTMTNLQTQTVPVVPAPSDPNRSVWTDEADNLWEKMRAGKPIFDTADSNSGGSSDTSSDNSASSDDSGTTDSNQSDTTAETPDPVTGLITKSDGTLVDPSTGGTVDPDDGSIHDATTGQYIGLADRYLNATVCAVPAKNLEHHHHHH | not failed |
| MGSKKQIRVQNISHDNIYSGLRCFVDGSWKGSDKFSGLGWFCRSSNGDSPTMGAANLRRSLYPLHTEVEALLWSMKCMIGADNQEVAFFTDYSDLVKMVSSPTE | failed |
| MGSLMSGWDSRVRDPKSVRRCKSLTREEIDTFWKTKKKNEEEEHVQAFSKLVTQEGAQSQAKEKKSVDDLFENQSKSSGWWRKTYWAFLNEPREEEGRPNNYVSQFKVAHIAKIAGS | failed |
| MGSRLAESSTPMKACEEVGRPSFTSEQTASSCVIDVRDNARISSASSDGTEVESVGTAIKGELDRTARPTFTAGKNKSVRFECDLDQSNSSNSSENGSSRKPEMGGKICFTVSSPNPTPLKLSDEMQTPGTIYPANMESGGRGRPRIRSQFVHSVSNIMENASLYKVYKDSHEGLDYEEQIEAETPSSETYGEKVEESSDEKLSKFEASFSPWLNQINENIAALNERTPGVGVITPGDRPIIGLVAAQWIENEQTEISPKMWDGNGIPNSTTKYKEDQKVSWHATPFEVRLEKALSEEGGQSLFPQRKLEVMMEEVEGDTDISQLHHSVQPNSVVSF | failed |
| MGSSHHHHHHSSGLVPRGSHMFKLTPAAAEQVLKAAKQGGTEGMCLRLAAGRNPDGSIDYRMGFDDLTEDDIRLTSEGVEIVIAPDYVSLLDQTTLDYVELEPGQFHFIFLNPRDPTYRPPSGG | not failed |
| MGSSHHHHHHSSGRENLYFQGMTKNTRFSPEVRQRAVRMVLESQGEYDSQWATICSIAPKIGCTPETLRVWGRQHERDTGGGDGGLTTAERQRLKEPERENRELRRSNDILRQASAYFAKAEFDRLWKK | not failed |
| MGSSSSFSSSSSKLLFRQLFENESSTFTYLLADVSHPDKPALLIDPVDKTVDRDLKLIDELGLKLIYAMNTHVHADHVTGTGLLKTKLPGVKSVISKASGSKADLFLEPGDKVSIGDIYLEVRATPGHTAGCVTYVTGEGADQPQPRMAFTGDAVLIRGCGRTDFQEGSSDQLYESVHSQIFTLPKDTLIYPAHDYKGFEVSTVGEEMQHNPRLTKDKETFKTIMSNLNLSYPKMIDVAVPANMVCGLQDVPSQAN | not failed |
| MGSSSYAVIPGAAPRSGRRSIRAVLVLALTAGVATVVPAAQADTSTPAAAPVAAKPYMGWSSWSMQSSKYPGLNPDGDYSYLTEANVLKQTDALASKLKKYGYDHVNIDAGWWMDKNWKTQFDQYGRQTPDPVRFPHGMKSVADHIHSKGLKAGIYLPVGLEKGAYGDGKTPISKAPGCTTADIVYSDLRTTNGWDNAYKIDFDKSCAQKYIDSQAQMFADWGYDFLKLDGVGPGSFKSGDNYNNVADVAAWQKAIAATGRPIHLELSWSLDIGHAADWKKYSNGWRIDTDIECYCNTLVTWENSVNDRWDDAPAWSSKAGPGGWNDLDAIDVGNGEMDGLTKAERQSYMTLWAINKSPLFTGDDLTKLDSYGVSLLTNKEVIAVDQNTSPVARPVTPVGDQQVWGTKNADGSYTVALFNLGDSPASVTAHWASFGFTGNASVRDLWNKTNLGTHKNKITEALPAHGSRLFTIKPGGGTLATTGYEAEAAANTLSGNASVGGCDACSGGKKVGNLYTGGKLRINDITVKKDGIYTVKVAYVSGDPRSVTVLSNSGNGTSLKFPSTGDWSTAETVSVQLALKAGSNTITFDSGSGYAPDIDRIVVPQSV | failed |
| MGTAMRSVAWGLAIALWPIAVWAENPEDLQRLLTTRQCERCDLQDSGLVLARLSGARLTGSNLQRANLSGADLSGADLRQTDLRGASLQRANLAGANLTGARLDGVDLREAWLTEAILTPQQLALAHIQGAQGLDVTALPFERYQAWGIEAIQAGRFERAISYFDLALQRNPKSASTYLSRAIAYQGLGRSEQAIADAQAAEQLYKSQQNPEGEKRSQELRTTIVAAQERVASSGSNGGNGGGSAALAVLTGIVQGVLPFLLGFPF | failed |
| MGTEERKARQKRYPPVLQDSGERPRRRFPYVSRSFVPSVFTVMNMVSGYVSIVMAGEGSFVIAGWLIFLAAFFDTIDGFVARLTNSSSEFGVELDSLSDLVSFGAAPAYLVYKFGLEHIGMPWGLLLSSLLMVGSGLRLARFNINLIDYHKDSFSGLPTPAQAMTVASFVLWMSVEPLFTELALQKVLMVLSVLLATLMVSKVNYDALPKPTLESFRSHPVQMILYVIAIFCVLVFQAKAFFVAMLLYILLGIVRSLTRTVQEWQL | failed |
